Source: the nanobody polyreactivity screen of Harvey et al. (2022)

Assay: yeast display, Sf9 membrane polyspecificity reagent, FACS + sequencing; frameworks hold sequencing errors
How it was run: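 Nanobodies from a synthetic yeast display library (Saccharomyces cerevisiae BJ5465), induced 36–48 hours with galactose, were stained 1 hour at 4 °C with 10% biotinylated, detergent-solubilized Sf9 membrane reagent, enriched on streptavidin microbeads, then FACS-sorted. Anti-HA (expression) and streptavidin (reagent binding) fluorescence set low and high (top ~1%) gates. Polyreactivity labels come from the gate of origin. Genes were colony-PCR amplified, MiSeq 2 × 250 sequenced and filtered by CDR length.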

Sequence | polyreactivity (PSR sort gate)
QVQLVESGGGLVQAGGSLRLSCAASGFTFRRYDMGWYRQAPGKERELVATINRGGSTDYADSVKGRFTISRDNAKNTVYLQMNSLKAEDTAVYYCATRYYSSRTWSEYYYWGQGTKVTVSS | high polyreactivity
QVQLVESGGGLVQAGGSLRLSCAASGSIFQRYAMGWYRQAPGKERELVAAISGSGGRTYYADSVKGRFTISRDNAKNTVYLQMNSLKPEDTAVYYCAKDFRLRGGYDYWGQGTQVTVSS | high polyreactivity
QVQLVESGGGLVQAGGSLRLSCAASGSTFGTYAMGWYRQAPGKERELVAAISRRGGSTYYADSVKGRFTISRDNAKNTVYLQMNSLKTEDTAVYYCAARKFHPDDNYWGQGTQVTVSS | high polyreactivity
QVQLVESGGGLVQAGGSLRLSCAASGYIFATYAMGWYRQAPGKERELVAAISWSGGRTYYADSVKGRFTISRDNAKNTVYLQMNGLKPEVTAVYYCAAQSYSRMDYWGQGTQVTVSS | high polyreactivity
QVQLVESGGGLVQAGGSLRLSCAASGSIFRINAMGWYRPARGKERELVAATTKYADSVKGRFTISRDNAKNTVYLQMHSLKPEDTAVYYCAAAPIGGSSHPYDYWGQGTQVTVTS | low polyreactivity
QVQLVESGGGLVQAGGSLRLSCAASGFIFSYYAMGWYRQAPGKERELVAAISRNGGRTYYADSVKGRFTISRDNAKNTVYLQMNSLKPEDTAVYYCATGKIREDDYWGQGTQVTVSS | high polyreactivity
QVQLVESGGGLVQAGGSLRLSCAASGSIFVDNAMGWYRQAPGKETQLVAAIRSRDTSTYYADSVKGRFSISLDNAKNTVYLQMNSLKPEDTAVYYCAARTSKRVSQYNYWGQGTQVTVSS | high polyreactivity
QVQLVESGGGLVQAGGSLSLSCAASGYIFSSNTMGWYRQAPGKERELVAGITASATITYYADSVKGRFTISRDNAKNTVYLQMNSLKPEDTAVYYCAADPVLGVFKFEYWGQGTQVTVSS | low polyreactivity
QVQLVESGGGLVQAGGSLRLSCAASGSTFRRNAMGWYRQAPGKERELVAAITVSGGSTYYADSVKGRFTISRDNAKNTVYLQMNSLKPEDTAVYYCAAEPSQYSWYTTYYYWGQGTQVTVSS | high polyreactivity
QVQLVDSGGGLVQAGGSLRLSCAASGRIFYAYDMGWYRQAPGKERELVADITSSGSTNYADSVKGRFTISRDNAKNTVYLQMNSLKPEDTAVYYCNTEPSGYESGYWGQGTQVTVSS | low polyreactivity
QVQLVEAGGGLVLAGGSLRLSCAASGIIFVSYAMGWSRQAPGKERELVASISWSGGRTYYADSVKARFTISRDNAKNTVYLQMNSLKPEDTAVYFCAAAYRTRSGVRRYPWFNYWGQGTQVTVSS | high polyreactivity
QVQLVESGGGLVQAGGSLRLSCAASGRIFAKYAMGWYRQAPGTERELVAAISWGGGSTYYADSVKGRFTISRDNAKNTVYLQMNSLKPEDTAVYYCAARIPKQRDVRGSGMNYWGQGTQVTVSS | high polyreactivity
QVQLVESGGGLVQAGGSLRLSCAPSGRIFYSYAMGWYRQAPGKVRELVAAIRSRGGSTRYADSVKGRFTISRDNAKNNVYLQMNSLKPEDTAVYYCAATGYQSRGSSDYWGQGTQVSVSS | high polyreactivity
QVQLVESGGGLVQAGGSLRLSCAASGGIFPTYVMGWYRQAPGKERELVAAIDRNGTSTTYADSVKGRFTISRDYAKNTVYLQMNSLKPEDTAVYYCAAGYNDQTSAYDYWGQGTQVTVSS | low polyreactivity
QVQLVESGGGLVQAGGSLRLSCAASGRTFGLYAMGWYRQAPGKERELVAAIDQSTGSTYYADSVKGRFTISRDNAKNTVYLQMNSLKPEDTAVYYCAAEEASTVRYYWYDYWGQVTQVTVSS | high polyreactivity
QVQLVESGGGLVQAGGSLRLSCAASGRIFRHNTMGWYRQAPGKERELDAGITASGGDTYYADSVKGRFTISRDNAKNTVYLQMNSLKPEDTAVYYCAKRGQSYTYRRYDYWGQGTQVTVSS | low polyreactivity

Sequence | polyreactivity (PSR sort gate)
QVQLVESGGGLVQAGGSLRLSCAASGRTFTIYTMGWYRQAPGKERELVAAISRGGRTNYADSVKGRFTISRDNAKNTVYLQMNSLKPEDTAVYYCNADGSRYYTAYRLRLPYDYWGQGTQVTVSS | high polyreactivity
QVQLVESGGGLVQAGGSLRLSCDASGSIFDGYGMGWYRQAPGKERELVASITCNDGSTYYADSVKGRFTISRDNANNTFYLQMNSLKPEDTAVYYCASDQWGYEYDYWGQGTQVTVSS | low polyreactivity
QVQLVDSGGGLVQAGGSLSLSCAASGYTMGYYTMGWYIEAPGKERELVATISRRGGSTSYADSVKGRFTISRDNAKNTVYLQMNSLKPEDTAVYYCNAQTSGRVGSQYYSYDGSWGQCTQVTVSS | high polyreactivity
QVQLVESGGGLVQAGGSLRLSCAASGRTFGGNVRGWYRQAPGKERELVAAISYSGGSTHYADSVKGRFTISRDNAKNTVYLQMMSLIPEDTAVYYCNKPFPYYPDGPNGYDYWGQGTQVTVSS | low polyreactivity
QVQLVESGGGLVQAGGSLRLSCAASGFTFVAYAMGWYRQAPGKERELVAAISRRGGPTYYADSVKGRFTISRDNAKYTVYLQMNSLKAEDTAVYYCAAGWKAFDQRRTGRLIRLLGQGTQVTVSS | high polyreactivity
QVQLQESGGGLVQAGGSLRLSCAASGNISVTGIMGWYRQAPGKERELVASIGIGGTTYYADSVNGRFSISRDNAKNTVYLQMISLKPEDTALYYLAARYLYYAYSYWGQGTQVTVSS | low polyreactivity
QVQHVESAGGLVQEAGSLRLRCAASGSTFYSYAMGWSRQAPGKERELVAAISRSGGRTNYADSVKGRFTISRDIAKNTVYLQMNSLKPEDTAVYYCNARHYLSAYDYWGQGTQVTVSS | high polyreactivity
QVQLEESGGGLVQAGGSLRISCAASGSTYYNYAMGWYRQAPGKERELVAAISRSGITYYADSVKGRFTISRDNAKNTVYLQMNSLKPEDTAVYYCAAGRRFDQSMYYWGQGTQVTVSS | high polyreactivity
QVQLVESGGGLVQAGGSLRLSCAASGRISLFNAMGWYRQAPGKERELVAAITYTGGSTYYADSVKGRFTISRDNAKNTVYLQMNSLKPEDTAVYYCAAEYYYVYTYDYWGQGTQVTVSS | high polyreactivity
QVQLVESGGGLGQAGGTLRLTCAASGSIFRTYAMGWYRQAPGKERELVAAITWSGGRTYYADSVKGRFTISRDNATNTVYLPMISLKPDDTAVYYCNAVYLAYGGDYWGQGTQVTVSS | high polyreactivity
QVQLVESGGALVQAGGSVRLSCAASGRTFGTYAMGWYRQAPGKERELVAAISTRGGRTFYADSVKGRFTISRDNAKNTVYLQMNSLKPEDTAVYYCAAYYKYYEYDYWGQVTQVTVSS | high polyreactivity
QVQIVESGGGLVQAGGSLRLSCAASGSIIYRNAMGWYRQAPGKERELVAAIRTSSGSTYYAVSVKGRFTISRDNAKNTVYLQMNSLKPVDTAVYYCGAPRLYGYYSCGQGTQVTVSS | low polyreactivity
QVQLVESGGGLVLAGGSLRLSCAASGSTFIWNAMGWYRQAPGKERELVAAIRRGSSTNYADSVKGRFTISRDNAKNTVYLQMNSLKPEDTAVYYCAKKQVTTDVSSETFVLEMDYWGQGTQVTVSS | low polyreactivity
QVQLVESGGGLVQAGGSLRLSCAASGRIFLYYAMGWYRQAPGKERELVAAITSSGGDTYYADSVKGRFTISRDNAKNTVYLQMNSLKPEDTAVYYCAALGGRYRASTYGYWGQGTQVTVSS | high polyreactivity
QVQLVESGGGLVQAGGSLRLSCAASGIIFIYYGMGWYRQAPGKERELVAAIARSGGRTYYADSVKGRFTISRHNAKNTVYLQMHSLKPEETAVYYCATTYTPTGFDYWGQGPQVTVSS | high polyreactivity
QVQLVESGGGLVQAGGSLRLSCAPSGSTFDPFAMGWYRQAPGKERELVADITSSDGSTYYADSVKGRFTISRDNAKNTVYFQMNSLKPEVTAVYYCYSDYRYFWTYWGWSIYDYWGQGTQVTVSS | high polyreactivity
